Assay [1] deals with T1, human CCL17 (human, UniProt Q92583 24-94).
T1 construct: Biotinylated in the Fab ELISAs; also called huCCL17; Bt-huCCL17
T1 sequence: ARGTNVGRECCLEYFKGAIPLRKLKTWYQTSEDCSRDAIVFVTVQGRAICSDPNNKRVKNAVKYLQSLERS
The assay can be described thus: not stated in the legend (affinities by MSD-SEA in Examples 3 and 4).

The target of assay [2] is T2, cyno CCL17 (Macaca fascicularis (cyno), UniProt Q8HYP9 24-94 (rhesus entry)).
T2 sequence: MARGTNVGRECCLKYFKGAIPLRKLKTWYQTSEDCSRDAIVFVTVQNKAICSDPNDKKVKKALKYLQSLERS
The assay can be described thus: cell-based or functional assay.

Assay [3] has as its target T1, human CCL17. In words: cell-based or functional assay.
Assay [4] concerns the target T2, cyno CCL17. In words: cell-based or functional assay. The source holds these as a separate data set.
The target in assay [5] is T1, human CCL17. The assay can be described thus: cell-based or functional assay. The source holds these as a separate data set.
The target of assay [6] is T2, cyno CCL17. The assay can be described thus: solution equilibrium affinity (MSD-SEA), TBST, 48 h at 4 °C. The protocol:
(§1) Equal volumes of the anti-hCCL17 mAbs at 40 pM or 200 pM were added to each chemokine dilution to obtain mixtures containing the serial dilution of chemokines starting at a final concentration of […] and a constant concentration (20 pM or 100 pM) of anti-CCL17 antibody. The mixtures were prepared in duplicate and incubated at 4° C. for 48 hours to reach equilibrium. The free antibody was detected using a SECTOR Imager 6000 (Meso Scale Discovery) instrument. The resulting binding curves were fitted to obtain the dissociation equilibrium constant (KD) using the GraphPad Prism software (v 5.01) using a 1:1 binding model to perform nonlinear least-square regression analysis of the data.

Assay [7] deals with T1, human CCL17. Described as above. The protocol: as §1
The target in assay [8] is T1, human CCL17. The assay can be described thus: MSD-SEA; affinity for human CCL17 against that for cyno CCL17. The method, then: as §1
The next assay addresses T3, cyno CCL22 (cyno, UniProt O00626 25-93 (human entry), limits assumed).
T3 construct: Biotinylated in the Fab ELISA; also called cCCL22; CCCL22
T3 chain: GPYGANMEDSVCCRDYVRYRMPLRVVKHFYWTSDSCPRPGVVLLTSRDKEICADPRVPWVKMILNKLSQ
In words: ELISA, Fab captured by anti-kappa, biotinylated chemokine, streptavidin:HRP. The protocol:
(§2) Briefly, Maxisorp 96 well plates were coated with 1 μg/ml Goat anti-human Kappa (Southern Biotech). Semi-purified Fab was added to each plate. […] Proteins bound to the captured Fabs were detected using Streptavidin:HRP.

Assay [9] deals with T2, cyno CCL17. Described as above. The protocol:
as §2

Assay [10] concerns the target T1, human CCL17. The assay can be described thus: ranking ELISA of Fab variants with bt-human CCL17.

Residue numbers refer to the chain shown, from its start. A value given as a limit tells only on which side of the number the result lay.

B1: C17B236 (antibody, V domains shown)
VH: EVQLVQSGAEVKKPGESLKISCKGSGYSFTSYWIGWVRQMPGKGLEWMGIIDPSDSDTRYSPSFQGQVTISADKSISTAYLQWSSLKASDTAMYYCARVGPADVWDSFDYWGQGTLVTVSS
VL: DIVMTQSPDSLAVSLGERATINCKSSQSVLLSPWNSNQLAWYQQKPGQPPKLLIYGASTRESGVPDRFSGSGSGTDFTLTISSLQAEDVAVYYCQQYYLIPSTFGQGTKVEIK
notes: Full IgG1, kappa
With B1, the results for the Kd with human CCL17 [1], with cyno CCL17 [6] and in the assay with human CCL17 [7] were no more than 100000 pM, 297 pM and 39 pM, respectively. In addition, in the assay with cyno CCL17 [2], the “IC50 (nM), calcium flux assay in CCRF-CEM cells, 5 ng/ml cyno CCL17” value came to 0.349 nM. For the same molecule, the “IC50 (nM), calcium flux assay in CCRF-CEM cells, 10 ng/ml human CCL17” value in the assay with human CCL17 [3] was found to be 0.385 nM. The “IC50 (nM), β-arrestin assay, Hek293 cells co-expressing CCR4, 20 nM CCL17” value in the assay with cyno CCL17 [4] is 9.5 nM; with human CCL17 [5], 6.98 nM. Further, the “Fold binding human/cyno CCL17” value with human CCL17 [8] stood at 7.6 fold.

B2: F24 (Fab, V domains shown)
VH: B1 VH
VL: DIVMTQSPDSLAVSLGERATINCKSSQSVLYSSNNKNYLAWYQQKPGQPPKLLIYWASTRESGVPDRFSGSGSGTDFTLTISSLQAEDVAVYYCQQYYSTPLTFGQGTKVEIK
notes: Semi-purified Fab with a His tag at the C-terminus of the heavy chain; also called C17F24
With B2, the values for the binding result with cyno CCL22 and with cyno CCL17 [9] were “no binding” and “binds”, respectively.

B3: C17F319 variant W→T at HCDR3 position 100a (Kabat) (Fab, V domains shown)
VH: B1 VH with W105T
VL: B1 VL
For the molecule B3, in the assay with human CCL17 [10], the binding result was “binds”.

B4: C17F319 variant W→R at HCDR3 position 100a (Kabat) (Fab, V domains shown)
VH: B1 VH with W105R
VL: B1 VL
Consider B4, for which, in the assay with human CCL17 [10], the binding result is on record as “binds”.

Values taken from patent publication US20220348647A1 (published 2022).
